Test results as given in patent publication US20200131230A1 (published 2020).
Like-named read-outs stand apart in the source and are kept apart here. Positions of bridges follow the written chain, without caps; N, C: chain ends. Non-standard residues stand in square brackets, D forms with d. 2Nal = N[C@@H](Cc1ccc2ccccc2c1)C(=O)O; Phg = N[C@H](C(=O)O)c1ccccc1; Tle = CC(C)(C)[C@H](N)C(=O)O; Nle = CCCC[C@H](N)C(=O)O; AMF = not defined here

Experiments:
[1] = molecular target: T1, Thrombospondin human platelet (Calbiochem, 605225) (human, UniProt P07996 19-1170); test: cell-based or functional assay
[2] = molecular target: T1, Thrombospondin human platelet …; test: cell-based or functional assay; remark: listed apart in the source
[3] = molecular target: Recombinant-hTSP1 (human, UniProt P07996 19-1170, limits assumed); test: SPR (Biacore T200), single-cycle kinetics, recombinant hTSP1 immobilised on NTA chip
Method: First, 500 μM NiCl₂ was injected over an NTA-Chip (produced by GE Healthcare, BR100532) at a flow rate of 5 μL/min. for 1 minute to thereby activate NTA groups. Then, an EDC/NHS mixture was injected at a flow rate of 10 μL/min. for 7 minutes to thereby activate the carboxyl groups of dextran. Recombinant-hTSP1 was injected at a flow rate of 10 μL/min. for 7 minutes to immobilize the TSP1 on the substrate surfaces with activated NTA and carboxyl groups. Ethanolamine was injected at a flow rate of 10 μL/min. for 7 minutes to thereby deactivate unreacted, activated carboxyl groups.
Since Biacore T200 is highly responsive to change in DMSO concentrations, DMSO solutions were sequentially injected at concentrations of 4%, 4.4%, 4.8%, 5.2%, 5.6%, and 6% to correct for DMSO effects.
The analysis was conducted using the evaluation software provided with Biacore T100 and T200. A DMSO correction curve obtained by solvent correction measurements was applied for the analysis. Kinetics fitting was done on the difference data obtained by subtracting the baseline data from sample measurement data.

Sequence of Recombinant-hTSP1 (P07996 19-1170 limits assumed): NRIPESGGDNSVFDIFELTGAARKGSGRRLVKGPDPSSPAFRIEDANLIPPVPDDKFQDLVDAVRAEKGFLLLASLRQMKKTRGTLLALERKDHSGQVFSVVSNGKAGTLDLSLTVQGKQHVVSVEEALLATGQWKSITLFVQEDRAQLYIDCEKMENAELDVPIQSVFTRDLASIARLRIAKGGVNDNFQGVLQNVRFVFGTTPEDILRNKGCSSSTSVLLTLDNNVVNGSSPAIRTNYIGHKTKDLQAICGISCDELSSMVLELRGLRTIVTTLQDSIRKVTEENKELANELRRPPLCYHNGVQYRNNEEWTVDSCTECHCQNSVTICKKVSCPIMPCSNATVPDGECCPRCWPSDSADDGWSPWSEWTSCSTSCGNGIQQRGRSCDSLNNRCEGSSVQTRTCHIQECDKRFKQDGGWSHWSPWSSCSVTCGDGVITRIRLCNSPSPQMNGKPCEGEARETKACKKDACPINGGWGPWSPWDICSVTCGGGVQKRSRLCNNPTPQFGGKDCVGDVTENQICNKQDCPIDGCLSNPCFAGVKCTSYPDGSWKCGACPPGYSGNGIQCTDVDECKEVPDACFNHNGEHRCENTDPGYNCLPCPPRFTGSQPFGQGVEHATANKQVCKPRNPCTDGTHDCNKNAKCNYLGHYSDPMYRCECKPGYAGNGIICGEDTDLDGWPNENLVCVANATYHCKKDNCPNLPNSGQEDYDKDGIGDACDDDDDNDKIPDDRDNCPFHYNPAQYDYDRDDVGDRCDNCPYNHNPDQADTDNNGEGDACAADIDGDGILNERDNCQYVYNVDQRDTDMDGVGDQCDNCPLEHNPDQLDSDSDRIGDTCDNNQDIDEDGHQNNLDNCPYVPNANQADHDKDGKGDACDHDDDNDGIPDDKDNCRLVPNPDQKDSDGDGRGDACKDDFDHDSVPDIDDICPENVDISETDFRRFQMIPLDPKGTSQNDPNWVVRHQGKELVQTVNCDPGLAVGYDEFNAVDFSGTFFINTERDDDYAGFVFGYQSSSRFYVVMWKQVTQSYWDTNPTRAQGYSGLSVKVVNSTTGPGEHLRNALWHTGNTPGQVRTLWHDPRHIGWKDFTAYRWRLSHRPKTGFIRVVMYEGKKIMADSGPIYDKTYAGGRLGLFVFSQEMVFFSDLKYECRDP
T1 sequence (P07996 19-1170 limits assumed): as above

| Binder | Cell adhesion IC50 [1] [nM] | Cell adhesion IC50 [2] [nM] | Kd [3] [nM] |
| --- | --- | --- | --- |
| {CH2CO}-[2Nal][Phg]SGRNWVKWVC-NH2 (thioether N-12; SMILES CC(C)[C@@H]1NC(=O)[C@H](Cc2c[nH]c3ccccc23)NC(=O)[C@H](CCCCN)NC(=O)[C@H](C(C)C)NC(=O)[C@H](Cc2c[nH]c3ccccc23)NC(=O)[C@H](CC(N)=O)NC(=O)[C@H](CCCNC(=N)N)NC(=O)CNC(=O)[C@H](CO)NC(=O)[C@H](c2ccccc2)NC(=O)[C@H](Cc2ccc3ccccc3c2)NC(=O)CSC[C@@H](C(N)=O)NC1=O) [Compound 49] | 11.5 |  |  |
| {CH2CO}-FISGRNWV[3MH]WVC-NH2 (thioether N-12) [Compound 46] | 30.3 |  |  |
| {CH2CO}-[2Nal][Tle]SGRNWVKWVC-NH2 (thioether N-12; SMILES CC(C)[C@@H]1NC(=O)[C@H](Cc2c[nH]c3ccccc23)NC(=O)[C@H](CCCCN)NC(=O)[C@H](C(C)C)NC(=O)[C@H](Cc2c[nH]c3ccccc23)NC(=O)[C@H](CC(N)=O)NC(=O)[C@H](CCCNC(=N)N)NC(=O)CNC(=O)[C@H](CO)NC(=O)[C@H](C(C)(C)C)NC(=O)[C@H](Cc2ccc3ccccc3c2)NC(=O)CSC[C@@H](C(N)=O)NC1=O) [Compound 50] | 11.6 |  |  |
| {CH2CO}-[2Nal][Nle]SGRNWVKWVC-NH2 (thioether N-12; SMILES CCCC[C@@H]1NC(=O)[C@H](Cc2ccc3ccccc3c2)NC(=O)CSC[C@@H](C(N)=O)NC(=O)[C@H](C(C)C)NC(=O)[C@H](Cc2c[nH]c3ccccc23)NC(=O)[C@H](CCCCN)NC(=O)[C@H](C(C)C)NC(=O)[C@H](Cc2c[nH]c3ccccc23)NC(=O)[C@H](CC(N)=O)NC(=O)[C@H](CCCNC(=N)N)NC(=O)CNC(=O)[C@H](CO)NC1=O) [Compound 48] | 10.4 |  |  |
| {CH2CO}-FISGRNWVKWVC-NH2 (thioether N-12; SMILES CC[C@H](C)[C@@H]1NC(=O)[C@H](Cc2ccccc2)NC(=O)CSC[C@@H](C(N)=O)NC(=O)[C@H](C(C)C)NC(=O)[C@H](Cc2c[nH]c3ccccc23)NC(=O)[C@H](CCCCN)NC(=O)[C@H](C(C)C)NC(=O)[C@H](Cc2c[nH]c3ccccc23)NC(=O)[C@H](CC(N)=O)NC(=O)[C@H](CCCNC(=N)N)NC(=O)CNC(=O)[C@H](CO)NC1=O) [Compound 3] |  | 20.8 | 0.25 |
| {CH2CO}-FISGRNWVRWRC-NH2 (thioether N-12; SMILES CC[C@H](C)[C@@H]1NC(=O)[C@H](Cc2ccccc2)NC(=O)CSC[C@@H](C(N)=O)NC(=O)[C@H](CCCNC(=N)N)NC(=O)[C@H](Cc2c[nH]c3ccccc23)NC(=O)[C@H](CCCNC(=N)N)NC(=O)[C@H](C(C)C)NC(=O)[C@H](Cc2c[nH]c3ccccc23)NC(=O)[C@H](CC(N)=O)NC(=O)[C@H](CCCNC(=N)N)NC(=O)CNC(=O)[C@H](CO)NC1=O) [Compound 5] |  | 33.4 | 0.9 |
| {CH2CO}-FISGKNWVKWVC-NH2 (thioether N-12; SMILES CC[C@H](C)[C@@H]1NC(=O)[C@H](Cc2ccccc2)NC(=O)CSC[C@@H](C(N)=O)NC(=O)[C@H](C(C)C)NC(=O)[C@H](Cc2c[nH]c3ccccc23)NC(=O)[C@H](CCCCN)NC(=O)[C@H](C(C)C)NC(=O)[C@H](Cc2c[nH]c3ccccc23)NC(=O)[C@H](CC(N)=O)NC(=O)[C@H](CCCCN)NC(=O)CNC(=O)[C@H](CO)NC1=O) [Compound 7] |  | 20.6 | 0.12 |
| {CH2CO}-FISGRNWVVWVC-NH2 (thioether N-12; SMILES CC[C@H](C)[C@@H]1NC(=O)[C@H](Cc2ccccc2)NC(=O)CSC[C@@H](C(N)=O)NC(=O)[C@H](C(C)C)NC(=O)[C@H](Cc2c[nH]c3ccccc23)NC(=O)[C@H](C(C)C)NC(=O)[C@H](C(C)C)NC(=O)[C@H](Cc2c[nH]c3ccccc23)NC(=O)[C@H](CC(N)=O)NC(=O)[C@H](CCCNC(=N)N)NC(=O)CNC(=O)[C@H](CO)NC1=O) [Compound 1] |  | 34.9 | 0.51 |
| {CH2CO}-FRSGRNWVKWVC-NH2 (thioether N-12; SMILES CC(C)[C@@H]1NC(=O)[C@H](Cc2c[nH]c3ccccc23)NC(=O)[C@H](CCCCN)NC(=O)[C@H](C(C)C)NC(=O)[C@H](Cc2c[nH]c3ccccc23)NC(=O)[C@H](CC(N)=O)NC(=O)[C@H](CCCNC(=N)N)NC(=O)CNC(=O)[C@H](CO)NC(=O)[C@H](CCCNC(=N)N)NC(=O)[C@H](Cc2ccccc2)NC(=O)CSC[C@@H](C(N)=O)NC1=O) [Compound 6] |  | 27.3 | 0.44 |
| {CH2CO}-FISGKNWVRWVC-NH2 (thioether N-12; SMILES CC[C@H](C)[C@@H]1NC(=O)[C@H](Cc2ccccc2)NC(=O)CSC[C@@H](C(N)=O)NC(=O)[C@H](C(C)C)NC(=O)[C@H](Cc2c[nH]c3ccccc23)NC(=O)[C@H](CCCNC(=N)N)NC(=O)[C@H](C(C)C)NC(=O)[C@H](Cc2c[nH]c3ccccc23)NC(=O)[C@H](CC(N)=O)NC(=O)[C@H](CCCCN)NC(=O)CNC(=O)[C@H](CO)NC1=O) [Compound 10] |  | 10.9 | 0.091 |
| {CH2CO}-FISGRTWVKWVC-NH2 (thioether N-12; SMILES CC[C@H](C)[C@@H]1NC(=O)[C@H](Cc2ccccc2)NC(=O)CSC[C@@H](C(N)=O)NC(=O)[C@H](C(C)C)NC(=O)[C@H](Cc2c[nH]c3ccccc23)NC(=O)[C@H](CCCCN)NC(=O)[C@H](C(C)C)NC(=O)[C@H](Cc2c[nH]c3ccccc23)NC(=O)[C@H]([C@@H](C)O)NC(=O)[C@H](CCCNC(=N)N)NC(=O)CNC(=O)[C@H](CO)NC1=O) [Compound 13] |  | 18.7 | 0.096 |
| {CH2CO}-FRSGRNWVVWVC-NH2 (thioether N-12; SMILES CC(C)[C@@H]1NC(=O)[C@H](Cc2c[nH]c3ccccc23)NC(=O)[C@H](C(C)C)NC(=O)[C@H](C(C)C)NC(=O)[C@H](Cc2c[nH]c3ccccc23)NC(=O)[C@H](CC(N)=O)NC(=O)[C@H](CCCNC(=N)N)NC(=O)CNC(=O)[C@H](CO)NC(=O)[C@H](CCCNC(=N)N)NC(=O)[C@H](Cc2ccccc2)NC(=O)CSC[C@@H](C(N)=O)NC1=O) [Compound 2] |  | 25.5 | 0.15 |
| {CH2CO}-WISGRNWVKWVC-NH2 (thioether N-12; SMILES CC[C@H](C)[C@@H]1NC(=O)[C@H](Cc2c[nH]c3ccccc23)NC(=O)CSC[C@@H](C(N)=O)NC(=O)[C@H](C(C)C)NC(=O)[C@H](Cc2c[nH]c3ccccc23)NC(=O)[C@H](CCCCN)NC(=O)[C@H](C(C)C)NC(=O)[C@H](Cc2c[nH]c3ccccc23)NC(=O)[C@H](CC(N)=O)NC(=O)[C@H](CCCNC(=N)N)NC(=O)CNC(=O)[C@H](CO)NC1=O) [Compound 9] |  | 27.3 | 0.23 |
| {CH2CO}-FITGRNWVKWVC-NH2 (thioether N-12; SMILES CC[C@H](C)[C@@H]1NC(=O)[C@H](Cc2ccccc2)NC(=O)CSC[C@@H](C(N)=O)NC(=O)[C@H](C(C)C)NC(=O)[C@H](Cc2c[nH]c3ccccc23)NC(=O)[C@H](CCCCN)NC(=O)[C@H](C(C)C)NC(=O)[C@H](Cc2c[nH]c3ccccc23)NC(=O)[C@H](CC(N)=O)NC(=O)[C@H](CCCNC(=N)N)NC(=O)CNC(=O)[C@H]([C@@H](C)O)NC1=O) [Compound 12] |  | 22.2 | 0.38 |
| {CH2CO}-WISGRNWVRWVC-NH2 (thioether N-12; SMILES CC[C@H](C)[C@@H]1NC(=O)[C@H](Cc2c[nH]c3ccccc23)NC(=O)CSC[C@@H](C(N)=O)NC(=O)[C@H](C(C)C)NC(=O)[C@H](Cc2c[nH]c3ccccc23)NC(=O)[C@H](CCCNC(=N)N)NC(=O)[C@H](C(C)C)NC(=O)[C@H](Cc2c[nH]c3ccccc23)NC(=O)[C@H](CC(N)=O)NC(=O)[C@H](CCCNC(=N)N)NC(=O)CNC(=O)[C@H](CO)NC1=O) [Compound 11] |  | 26.3 | 0.14 |
| {CH2CO}-FISGRNWVRWVC-NH2 (thioether N-12; SMILES CC[C@H](C)[C@@H]1NC(=O)[C@H](Cc2ccccc2)NC(=O)CSC[C@@H](C(N)=O)NC(=O)[C@H](C(C)C)NC(=O)[C@H](Cc2c[nH]c3ccccc23)NC(=O)[C@H](CCCNC(=N)N)NC(=O)[C@H](C(C)C)NC(=O)[C@H](Cc2c[nH]c3ccccc23)NC(=O)[C@H](CC(N)=O)NC(=O)[C@H](CCCNC(=N)N)NC(=O)CNC(=O)[C@H](CO)NC1=O) [Compound 4] |  | 11.2 | 0.26 |
| {CH2CO}-FISGRNWV[AMF]WVC-NH2 (thioether N-12; reading uncertain) [Compound 47] | 16.7 |  |  |
